From the supplement of paper PMC7125110
± gives the standard error. For some of these results: Fewer inactive variants are shown than the library holds.

B1: glmS ribozyme (parent)
chain: AUAAAAGCGCCAGAACUACAGAAAUGUAGUUGACGAGGAGGAGGUUUAUCGAAUUUUCGGCGGAUGCCUCCAAA

Assays:
Details in all cases: with glucosamine-6-phosphate
[1] = variants of: B1; experiment: kcat; higher = faster cleavage; RNA array
Outline: (§1)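 Barcoded ribozyme variants, transcribed in situ by E. coli RNA polymerase on sequenced MiSeq chips, were followed via a hybridised Cy3 probe at 37 °C. Glucosamine-6-phosphate ranged from 40 μM to 10 mM in HEPES/KCl/Mg(OAc)2 buffer. kobs came from decay fits to per-tile medians, and kcat and KM from weighted Michaelis–Menten fits.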

[2] = variants of: B1; experiment: KM; higher = weaker cofactor use; RNA array
Outline: as §1

[3] = variants of: B1; experiment: self-cleavage kobs at 40 uM GlcN6P; higher = faster cleavage; RNA array
Outline: as §1

[4] = variants of: B1; experiment: self-cleavage kobs at 160 uM GlcN6P; higher = faster cleavage; RNA array
Outline: as §1

[5] = variants of: B1; experiment: self-cleavage kobs at 640 uM GlcN6P; higher = faster cleavage; RNA array
Outline: as §1

[6] = variants of: B1; experiment: self-cleavage kobs at 2500 uM GlcN6P; higher = faster cleavage; RNA array
Outline: as §1

[7] = variants of: B1; experiment: self-cleavage kobs at 10000 uM GlcN6P; higher = faster cleavage; RNA array
Outline: as §1

Row | Variant | kcat [1] [s⁻¹] | KM [2] [µM] | self-cleavage kobs at 40 uM GlcN6P [3] [s⁻¹] | self-cleavage kobs at 160 uM GlcN6P [4] [s⁻¹] | self-cleavage kobs at 640 uM GlcN6P [5] [s⁻¹] | self-cleavage kobs at 2500 uM GlcN6P [6] [s⁻¹] | self-cleavage kobs at 10000 uM GlcN6P [7] [s⁻¹]
1 | A14G A48U | 0.00132 ± 0.00027 | 2320 ± 780 | 3.34e-05 ± 1.3e-05 | 6.56e-05 ± 1.5e-05 | 0.000335 ± 5.6e-05 | 0.000889 ± 0.00016 | 0.000999 ± 0.00013
2 | C58A G62A | < 1e-05 |  | < 1e-05 |  | < 1e-05 |  | 
3 | A12U A48U | 0.0014 ± 0.00052 |  |  | 7.62e-05 ± 1.5e-05 | 0.00024 ± 3.3e-05 | 0.000479 ± 6.9e-05 | 0.00139 ± 0.00023
4 | G13C U56C | 2.35e-05 ± 6.9e-08 | 1100 ± 19 | < 1e-05 |  |  |  | 2.11e-05 ± 8e-06
5 | A39G C50A G51U C71G | 1.15e-05 ± 3.2e-06 |  |  |  |  |  | 
6 | G51U U57A | < 1e-05 |  |  |  |  | < 1e-05 | < 1e-05
7 | A6U U54A C67A | 2.15e-05 ± 2.2e-06 |  |  | < 1e-05 |  |  | 
8 | U47C G66A | 0.00207 ± 0.00059 | 1050 ± 470 | 0.000111 ± 2.1e-05 | 0.00017 ± 6.1e-05 | 0.000815 ± 0.0002 | 0.00159 ± 0.00037 | 0.00183 ± 0.0004
9 | C50G U55G | 3.86e-05 ± 1.8e-05 |  |  | 7.28e-05 ± 1.9e-05 |  | 4.97e-05 ± 1.6e-05 | 
10 | C10U A14U | < 1e-05 |  | < 1e-05 |  |  |  | 
11 | A15G G43U | 4.47e-05 ± 6.5e-06 |  |  | < 1e-05 |  | 4.65e-05 ± 9.7e-06 | 4e-05 ± 5.6e-06
12 | A42G C50A | 4.52e-05 ± 2.6e-06 | 7070 ± 920 |  |  |  |  | 
13 | A12C U46G | 0.00332 ± 0.00078 | 1950 ± 600 | 8.74e-05 ± 1.3e-05 | 0.000221 ± 3.6e-05 | 0.000761 ± 0.00012 | 0.002 ± 0.00032 | 0.00278 ± 0.00064
14 | A15G G59U | 0.000115 ± 2.5e-05 |  |  |  | 2.79e-05 ± 1.3e-05 | 4.46e-05 ± 1.4e-05 | 9.05e-05 ± 1.6e-05
15 | G13C A15G U45A | 0.000289 ± 4.4e-05 | 3490 ± 950 | < 1e-05 |  | 4.01e-05 ± 1.3e-05 | 0.000129 ± 2.4e-05 | 0.000208 ± 4.4e-05
16 | A15G G29U C50G | 3.72e-05 ± 6.3e-06 |  |  |  |  | 5.06e-05 ± 2.4e-05 | 
17 | A42G G66A U69A | 0.0145 ± 0.0037 | 1590 ± 490 | 0.000356 ± 0.0001 |  |  |  | 0.0125 ± 0.0052

Row | Variant | kcat [1] [s⁻¹] | KM [2] [µM] | self-cleavage kobs at 40 uM GlcN6P [3] [s⁻¹] | self-cleavage kobs at 160 uM GlcN6P [4] [s⁻¹] | self-cleavage kobs at 640 uM GlcN6P [5] [s⁻¹] | self-cleavage kobs at 2500 uM GlcN6P [6] [s⁻¹] | self-cleavage kobs at 10000 uM GlcN6P [7] [s⁻¹]
18 | U46G C71A | 0.00159 ± 0.00031 | 935 ± 350 | 5.65e-05 ± 1.3e-05 |  | 0.000943 ± 0.00016 | 0.000985 ± 0.00028 | 0.00143 ± 0.00019
19 | A53C G66A | 0.00434 ± 0.0011 | 1670 ± 640 | 0.000154 ± 2.2e-05 | 0.000292 ± 6.4e-05 | 0.00107 ± 0.00017 | 0.00288 ± 0.00047 | 0.00374 ± 0.00053
20 | U46C U56A | 0.00121 ± 0.00013 | 1470 ± 230 | 2.85e-05 ± 1e-05 | 0.000117 ± 1.4e-05 | 0.000406 ± 0.00011 | 0.000915 ± 0.00015 | 0.00098 ± 0.00014
21 | G32A U54C | 0.00356 ± 0.0013 |  | 3.45e-05 ± 1.1e-05 |  | 0.000309 ± 6.5e-05 | 0.00147 ± 0.00026 | 0.0022 ± 0.00036
22 | A5U | 0.0156 ± 0.0027 | 661 ± 170 | 0.000961 ± 0.00015 | 0.00247 ± 0.00049 | 0.00869 ± 0.0012 | 0.0143 ± 0.0042 | 0.0129 ± 0.003
23 | G32C C58A | 0.000602 ± 8.9e-05 | 8220 ± 1700 |  |  | 4.35e-05 ± 8.2e-06 | 0.000139 ± 1.7e-05 | 0.000333 ± 4.8e-05
24 | C11A G44U G59U | 0.000238 ± 5.3e-06 | 1330 ± 77 |  |  | 7.85e-05 ± 2.2e-05 | 0.00015 ± 4.7e-05 | 0.000212 ± 4e-05
25 | G43C U45G | 0.00237 ± 0.00082 |  | 8.35e-05 ± 1.2e-05 | 0.000135 ± 2.3e-05 | 0.000694 ± 0.00012 | 0.00109 ± 0.00024 | 0.00211 ± 0.00027
26 | A15U G32A | 0.00116 ± 0.00015 | 4440 ± 850 |  |  | 0.000153 ± 2.9e-05 | 0.000388 ± 9.4e-05 | 0.00082 ± 0.00016
27 | A15G U46G | 0.00908 ± 0.00054 | 2020 ± 170 | 0.000184 ± 2e-05 | 0.000667 ± 0.0001 | 0.00198 ± 0.00026 | 0.00538 ± 0.00091 | 0.00757 ± 0.00068
28 | U46G C71G | 0.000535 ± 0.00017 |  | 4.15e-05 ± 1.4e-05 | 5.99e-05 ± 1.8e-05 | 0.000392 ± 7.6e-05 | 0.000849 ± 0.00013 | 0.000435 ± 5.5e-05
29 | G66C C67G | 2.61e-05 ± 7.8e-06 |  |  |  | 2.84e-05 ± 1.3e-05 |  | 
30 | U31G G60A | 1.46e-05 ± 6.5e-06 |  |  |  |  |  | 
31 | G40U U46C U47G | 2.86e-05 ± 4.9e-06 |  |  |  |  |  | 
32 | C11U G38C | < 1e-05 |  |  |  | < 1e-05 | < 1e-05 | 
33 | U47A C67U | 0.00772 ± 0.0031 |  | 0.00025 ± 3.1e-05 | 0.000428 ± 7.1e-05 | 0.003 ± 0.00062 | 0.00497 ± 0.0016 | 0.00638 ± 0.00092
34 | A14U G35U | < 1e-05 |  |  | < 1e-05 |  | < 1e-05 | 
